The assay addresses XD-CGFP fusion protein (X domain of the measles virus phosphoprotein fused to the C-terminal half of eGFP) (UniProt P03422). Description: split-GFP reassembly assay (fluorescence to OD600 ratio of E. coli co-expressing NGFP-N_TAIL and XD-CGFP). The following applies: parent: est. 1.1; read off a plot.
Chain of UniProt P03422 (P03422 459-507): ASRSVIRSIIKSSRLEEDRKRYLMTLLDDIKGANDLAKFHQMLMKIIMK
With “NGFP-wtN_TAIL fusion protein (C-terminal domain of the measles virus nucleoprotein fused to the N-terminal half of eGFP) mutant 2 (substitutions not printed)”, the response (x10^4 fluorescence intensity / OD600) was found to be 0.9.
For “NGFP-wtN_TAIL fusion protein (C-terminal domain of the measles virus nucleoprotein fused to the N-terminal half of eGFP) mutant 3 (substitutions not printed)” the value was 0.54; for “NGFP-wtN_TAIL fusion protein (C-terminal domain of the measles virus nucleoprotein fused to the N-terminal half of eGFP) mutant 1 (substitutions not printed)”, 1.1.

Values taken from paper PMC3349575.
